Assay results taken from patent publication CN114075285A.
pKd: −log10 of the molar value.

Legend:
[1] = molecular target: CD38 antigen on the cell surface (Daudi cells; NCI-H929 cells) (human) (UniProt P28907); test: cell-based or functional assay
[2] = molecular target: CD38 (human), analyte in Biacore (human) (UniProt P28907); test: SPR (Biacore 8K), antibody captured on Protein A chip, CD38 as analyte, 25℃

## RB0021 PC(Daratumumab) (antibody)
[1]
  ADCC reporter (Jurkat-Lucia-NFAT-CD16 + NCI-H929), EC50(μg/mL): 0.017 µg/mL
  ADCC reporter (Jurkat-Lucia-NFAT-CD16 + NCI-H929), Top MFI: 57200
[2]
  pKd: 7.05

## Isotype control (antibody)
[1]
  ADCC reporter (Jurkat-Lucia-NFAT-CD16 + NCI-H929), EC50(μg/mL): 0.375 µg/mL
  ADCC reporter (Jurkat-Lucia-NFAT-CD16 + NCI-H929), Top MFI: 2120
